Holding throughout (experiment): cell_activity; CHO extrachromosomal LacZ assay
Data set [1] concerns the target T1, I-CreI heterodimer HBB5.3_A3 / HBB5.4_B1 (Chlamydomonas reinhardtii, UniProt P05725;P05725 SEQ:1-167,SEQ:1-167).
T1 chain 1: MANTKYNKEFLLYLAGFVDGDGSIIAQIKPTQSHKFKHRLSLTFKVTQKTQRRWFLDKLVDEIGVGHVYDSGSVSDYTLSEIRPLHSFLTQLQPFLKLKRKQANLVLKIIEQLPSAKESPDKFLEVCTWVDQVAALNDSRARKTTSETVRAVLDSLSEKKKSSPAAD
T1 chain 2: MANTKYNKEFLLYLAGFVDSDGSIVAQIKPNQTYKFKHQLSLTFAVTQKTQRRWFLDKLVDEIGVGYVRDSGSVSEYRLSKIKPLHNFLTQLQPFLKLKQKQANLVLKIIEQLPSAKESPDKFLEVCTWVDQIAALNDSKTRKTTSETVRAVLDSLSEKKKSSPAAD
The protocol: (§1) Several I-CreI refined mutants able to efficiently cleave the HBB 5 target in yeast when forming heterodimers were identified in example 7. In order to validate and characterize the heterodimer displaying the maximal efficacy to cleave the HBB 5 sequence in CHO cells, the efficiency of combinations of mutants able to cut the HBB 5 target were tested using an extrachromosomal assay in mammalian cells.
(§2) CHO cells were transfected with Polyfect® transfection reagent according to the supplier's protocol (QIAGEN). 72 hours after transfection, culture medium was removed and 150 μl of lysis/revelation buffer for β-galactosidase liquid assay was added (typically 1 liter of buffer contained: 100 ml of lysis buffer (Tris-HCl 10 mM pH7.5, NaCl 150 mM, Triton X100 0.1%, BSA 0.1 mg/ml, protease inhibitors), 10 ml of Mg 100×buffer (MgCl₂ 100 mM, β-mercaptoethanol 35%), 110 ml ONPG 8 mg/ml and 780 ml of sodium phosphate 0.1M pH7.5). After incubation at 37° C., OD was measured at 420 nm. The entire process was performed on an automated Velocity11 BioCel platform. Per assay, 150 ng of target vector was cotransfected with 12.5 ng of each HBB5 mutant expression vector (12.5 ng of vector encoding the mutant cleaving the palindromic HBB5.3 target and 12.5 ng of vector encoding the mutant cleaving palindromic HBB5.4 target).

Data set [2] deals with T2, I-CreI heterodimer HBB5.3_A2 / HBB5.4_B1 (Chlamydomonas reinhardtii, UniProt P05725;P05725 SEQ:1-167,SEQ:1-167).
T2 chain 1: T1 chain 1 with T31S, S33P, H67Y, I82T, R83K, S87N, R100Q, V133I, R140K, A141T
T2 chain 2: T1 chain 2
Here is the method:
as §1, §2

Data set [3] has as its target T3, I-CreI heterodimer HBB5.3_B2 / HBB5.4_B1 (Chlamydomonas reinhardtii, UniProt P05725;P05725 SEQ:1-167,SEQ:1-167).
T3 chain 1: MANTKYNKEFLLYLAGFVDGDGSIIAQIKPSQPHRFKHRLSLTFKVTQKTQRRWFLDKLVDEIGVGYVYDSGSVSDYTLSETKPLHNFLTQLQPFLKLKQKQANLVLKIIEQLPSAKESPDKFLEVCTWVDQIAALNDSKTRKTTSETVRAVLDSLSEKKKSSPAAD
T3 chain 2: T1 chain 2
Here is the method: as §1, §2

Data set [4] addresses T4, I-CreI heterodimer HBB5.3_A2 / HBB5.4_A5 (Chlamydomonas reinhardtii, UniProt P05725;P05725 SEQ:1-167,SEQ:1-167).
T4 chain 1: T3 chain 1 with R35K
T4 chain 2: T1 chain 2 with V25I, K83R, F88L, V130A
Here is the method: as §1, §2

The target in data set [5] is T5, I-CreI heterodimer HBB5.3_E3 / HBB5.4_B1 (Chlamydomonas reinhardtii, UniProt P05725;P05725 SEQ:1-167,SEQ:1-167).
T5 chain 1: T1 chain 1 with T50A
T5 chain 2: T1 chain 2
Here is the method:
as §1, §2

Data set [6] concerns the target T6, I-CreI heterodimer HBB5.3_E3 / HBB5.4_A6 (Chlamydomonas reinhardtii, UniProt P05725;P05725 SEQ:1-167,SEQ:1-167).
T6 chain 1: T1 chain 1 with T50A
T6 chain 2: T1 chain 2 with V25I, H86R, F88L, K97R, K140R
Here is the method:
as §1, §2

For data set [7], the target named is T7, I-CreI heterodimer HBB5.3_E3 / HBB5.4_A5 (Chlamydomonas reinhardtii, UniProt P05725;P05725 SEQ:1-167,SEQ:1-167).
T7 chain 1: T1 chain 1 with T50A
T7 chain 2: T1 chain 2 with V25I, K83R, F88L, V130A
Here is the method:
as §1, §2

In data set [8] the target is T8, I-CreI heterodimer HBB5.3_B2 / HBB5.4_A5 (Chlamydomonas reinhardtii, UniProt P05725;P05725 SEQ:1-167,SEQ:1-167).
T8 chain 1: T3 chain 1
T8 chain 2: T1 chain 2 with V25I, K83R, F88L, V130A
The protocol: as §1, §2

Data set [9] deals with T9, I-CreI heterodimer HBB5.3_B2 / HBB5.4_A6 (Chlamydomonas reinhardtii, UniProt P05725;P05725 SEQ:1-167,SEQ:1-167).
T9 chain 1: T3 chain 1
T9 chain 2: T1 chain 2 with V25I, H86R, F88L, K97R, K140R
The protocol: as §1, §2

The target in data set [10] is T10, I-CreI heterodimer HBB5.3_A3 / HBB5.4_A5 (Chlamydomonas reinhardtii, UniProt P05725;P05725 SEQ:1-167,SEQ:1-167).
T10 chain 1: T1 chain 1
T10 chain 2: T1 chain 2 with V25I, K83R, F88L, V130A
The protocol: as §1, §2

Where a chain is given by its changes, count along the chain named.

B1: HBB5 (dsDNA)
DNA 1: CAAGACAGGTTTAAGGAGACCA
DNA 2: TGGTCTCCTTAAACCTGTCTTG
For the molecule B1, the activity in data set [1] came out at 0.2 absorbance units; in [2], 0.42 absorbance units; in data set [3] it was 0.33 absorbance units; in data set [4] it was 0.78 absorbance units; in data set [5], 0.37 absorbance units; in data set [6], 0.71 absorbance units. Further, the activity in data set [7] amounted to 0.46 absorbance units; in [8], 0.5 absorbance units; in [9] it was 0.54 absorbance units; in data set [10], 0.86 absorbance units.
